In patent US20050136043A1, “TGFbeta signaling inhibitors” (Ludwig Institute for Cancer Research, priority 2003, published 2005):

Experiments:
Experiment in all cases: In vitro kinase assay (autophosphorylation) of receptor expressed in COS-7 cells
Type in all cases: biochemical
Conditions in all cases: 10 μM peptide, FIG. 5
ActR-II = biological target: T1, ActR-II (Homo sapiens, UniProt P27037)
T1 construct: made in house; host or cells: COS-7 cells (transfected, Ni-NTA precipitated)
Procedure: (§1) For in vitro kinase assay of type I and type II TGFβ family receptors, p38α and SAPKα2 kinases, COS-7 cells were transfected with the kinase expression vectors or the control empty pcDNA3 vector using the DEAE-dextran method. Proteins were extracted in a lysis buffer (50 mM Tris-HCl, pH 7.5, 50 mM NaCl, 1% NP-40, 10 μg/mL aprotinin, 0.1 mM PMSF). HA-tagged proteins (ALK1 to ALK7, p38R, SAPKR2) were immunoprecipitated with anti-HA antibody (12CA5; Roche); His6-tagged proteins (type II receptors) were precipitated with Ni-NTA agarose (Qiagen). The precipitates were washed in extraction buffer, with 20 mM imidazole for Ni-NTA agarose-precipitated proteins, and two times with kinase buffer (20 mM HEPES, pH 7.4, 10 mM MgCl2, 2 mM MnCl2, 1 mM DTT). The kinase reaction was initiated by addition of 20 μL of kinase buffer containing 0.5 μCi of [γ-32P]ATP, 5.0 μM ATP, and inhibitory peptides at a final concentration of 10 μM. The reaction was performed at 22° C. for 20 min and terminated by addition of SDS-containing sample buffer and boiling for 5 min. The reaction products were analyzed by SDS-PAGE and exposure in a Fuji X2000 phosphorimager. Equal loading was controlled by immunoblotting aliquots of the samples with a HA probe (Y-11; Santa Cruz) or anti-His antibody (Qiagen).
(§2) To evaluate whether the substrate-mimicking peptides affect kinases of type I and type II reptors of the TGFβ family, we studied the influence of peptides on authophosphorylation of all known mammalian type I receptors [ALK-1, ActR-I (ALK-2), BMPR-IA (ALK-3), ActR-IB (ALK-4), TβR-I (ALK-5), BMPR-IB (ALK-6), and ALK-7], TβRII, ActR-II, BMPR-II, p38R, and SAPKR2 (FIG. 5). The kinases were expressed in COS-7 cells and purified by using specific anti-tag antibodies or Ni-NTA agarose, and kinase activity was tested in the presence of peptides.

BMPR-II = biological target: T2, BMPR-II (Homo sapiens, UniProt Q13873)
T2 construct: made in house; host or cells: COS-7 cells (transfected, Ni-NTA precipitated)
T2 sequence (Q13873 27-1038): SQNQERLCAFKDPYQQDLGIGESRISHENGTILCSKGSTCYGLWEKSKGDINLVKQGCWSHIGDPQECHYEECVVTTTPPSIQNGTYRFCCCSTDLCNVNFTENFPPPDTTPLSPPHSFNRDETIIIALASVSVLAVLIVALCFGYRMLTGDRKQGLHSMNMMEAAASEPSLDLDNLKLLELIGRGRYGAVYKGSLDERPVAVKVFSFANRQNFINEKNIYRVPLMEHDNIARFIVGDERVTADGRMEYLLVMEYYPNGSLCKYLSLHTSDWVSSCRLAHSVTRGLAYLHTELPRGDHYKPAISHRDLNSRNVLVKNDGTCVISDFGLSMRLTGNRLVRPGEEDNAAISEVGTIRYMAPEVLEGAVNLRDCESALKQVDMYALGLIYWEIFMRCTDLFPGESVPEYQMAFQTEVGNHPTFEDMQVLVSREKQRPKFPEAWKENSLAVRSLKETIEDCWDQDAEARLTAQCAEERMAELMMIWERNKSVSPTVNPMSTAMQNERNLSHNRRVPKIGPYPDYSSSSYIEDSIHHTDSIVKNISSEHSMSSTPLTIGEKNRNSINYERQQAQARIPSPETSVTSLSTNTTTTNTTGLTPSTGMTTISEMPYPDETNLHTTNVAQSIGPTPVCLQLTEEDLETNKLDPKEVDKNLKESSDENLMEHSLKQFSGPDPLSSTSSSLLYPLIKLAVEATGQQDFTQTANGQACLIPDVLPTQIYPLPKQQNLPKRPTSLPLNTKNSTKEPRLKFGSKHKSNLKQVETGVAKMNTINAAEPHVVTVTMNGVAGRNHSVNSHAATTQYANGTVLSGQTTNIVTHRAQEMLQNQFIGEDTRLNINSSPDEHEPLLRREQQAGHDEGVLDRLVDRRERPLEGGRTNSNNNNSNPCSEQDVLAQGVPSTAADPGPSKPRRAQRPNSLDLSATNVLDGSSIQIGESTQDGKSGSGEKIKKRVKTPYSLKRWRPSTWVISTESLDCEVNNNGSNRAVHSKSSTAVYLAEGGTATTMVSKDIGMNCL
Procedure: as §1, §2

BMPR-IB (ALK-6) = biological target: T3, BMPR-IB (ALK-6) (Homo sapiens, UniProt O00238)
T3 construct: made in house; host or cells: COS-7 cells (transfected, immunoprecipitated)
T3 sequence (O00238 14-502): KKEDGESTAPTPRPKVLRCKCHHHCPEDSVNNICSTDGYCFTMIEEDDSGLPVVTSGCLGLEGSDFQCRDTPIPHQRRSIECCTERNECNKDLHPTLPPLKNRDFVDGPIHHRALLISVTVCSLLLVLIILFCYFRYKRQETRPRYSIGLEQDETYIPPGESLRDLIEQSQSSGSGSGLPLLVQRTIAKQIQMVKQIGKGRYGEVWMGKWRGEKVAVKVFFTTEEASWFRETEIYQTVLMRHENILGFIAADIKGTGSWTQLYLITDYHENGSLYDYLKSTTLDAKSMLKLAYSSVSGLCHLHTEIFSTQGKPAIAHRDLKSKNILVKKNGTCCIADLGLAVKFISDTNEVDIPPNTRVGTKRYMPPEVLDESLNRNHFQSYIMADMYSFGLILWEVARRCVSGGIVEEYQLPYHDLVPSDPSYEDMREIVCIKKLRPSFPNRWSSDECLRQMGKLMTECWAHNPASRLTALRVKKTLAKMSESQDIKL
Procedure: as §1, §2

ALK-7 = biological target: T4, ALK-7 (Homo sapiens, UniProt Q8NER5)
T4 construct: made in house; host or cells: COS-7 cells (transfected, immunoprecipitated)
T4 sequence (Q8NER5 21-493): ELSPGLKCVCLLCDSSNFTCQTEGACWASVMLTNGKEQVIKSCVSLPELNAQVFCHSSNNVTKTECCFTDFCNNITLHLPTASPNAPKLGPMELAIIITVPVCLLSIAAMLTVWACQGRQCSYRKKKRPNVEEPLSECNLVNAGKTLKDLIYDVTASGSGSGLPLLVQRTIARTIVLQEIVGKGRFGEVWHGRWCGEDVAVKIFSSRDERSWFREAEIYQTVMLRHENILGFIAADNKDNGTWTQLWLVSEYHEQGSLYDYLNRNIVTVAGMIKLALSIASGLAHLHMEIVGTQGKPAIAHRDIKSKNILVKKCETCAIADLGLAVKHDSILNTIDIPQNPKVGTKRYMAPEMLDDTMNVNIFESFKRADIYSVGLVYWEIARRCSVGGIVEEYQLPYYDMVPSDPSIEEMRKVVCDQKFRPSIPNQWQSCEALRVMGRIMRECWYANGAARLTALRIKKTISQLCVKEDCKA
Procedure: as §1, §2

T1 sequence (P27037 20-513): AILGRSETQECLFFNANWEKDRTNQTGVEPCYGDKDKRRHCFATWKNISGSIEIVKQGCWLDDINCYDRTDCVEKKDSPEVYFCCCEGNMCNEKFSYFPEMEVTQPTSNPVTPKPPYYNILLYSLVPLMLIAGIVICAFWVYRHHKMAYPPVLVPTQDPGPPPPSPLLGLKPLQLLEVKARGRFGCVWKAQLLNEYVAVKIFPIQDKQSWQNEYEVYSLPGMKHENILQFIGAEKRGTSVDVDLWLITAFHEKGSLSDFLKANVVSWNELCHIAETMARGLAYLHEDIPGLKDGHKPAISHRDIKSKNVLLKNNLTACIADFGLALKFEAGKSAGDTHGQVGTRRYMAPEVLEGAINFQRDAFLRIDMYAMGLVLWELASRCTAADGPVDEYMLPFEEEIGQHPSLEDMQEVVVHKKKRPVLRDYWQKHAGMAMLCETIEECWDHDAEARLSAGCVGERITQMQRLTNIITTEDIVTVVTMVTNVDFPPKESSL

RQIKIWFQNRRMKWKKTQMGSPSVRCSAMA (listed as Homo sapiens) [antp-Sm2A]
without any effect: Effect on ActR-II kinase (ActR-II) | Effect on BMPR-II kinase (BMPR-II) | Effect on BMPR-IB (ALK-6) kinase (BMPR-IB (ALK-6)) | Effect on ALK-7 kinase (ALK-7)

RQIKIWFQNRRMKWKKTQMGSPSVRCSSMS (listed as Homo sapiens) [antp-Sm2S, penetratin fused to the C-terminus of wild-type Smad2]
without any effect: Effect on ActR-II kinase (ActR-II) | Effect on BMPR-II kinase (BMPR-II) | Effect on BMPR-IB (ALK-6) kinase (BMPR-IB (ALK-6)) | Effect on ALK-7 kinase (ALK-7)
